Laboratory results: PMC8221199
Where two headings read alike, the source gives them in different places. Blank lines part the entries; values can stand above or below the substance they belong to.

Key:
[1] = target: p53 N-terminal peptide (Homo sapiens) (UniProt P04637); conditions: cited from earlier work
[2] = target: p53 N-terminal peptide (Homo sapiens) (UniProt P04637); conditions: cited from earlier work; remark: listed apart in the source
[3] = target: p53 N-terminal peptide (Homo sapiens) (UniProt P04637); conditions: cited from earlier work; remark: listed apart in the source
acetyltransferase p300 = acetyltransferase p300 (UniProt Q09472)
[4] = target: p53 N-terminal peptide (Homo sapiens) (UniProt P04637); conditions: cited from earlier work; remark: listed apart in the source

Sequence of p300 Taz1 (Q09472 323-423): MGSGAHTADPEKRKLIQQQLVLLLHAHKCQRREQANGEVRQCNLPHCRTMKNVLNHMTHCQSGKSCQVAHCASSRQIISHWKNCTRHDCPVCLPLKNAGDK
Sequence of acetyltransferase p300 (Q09472 whole entry): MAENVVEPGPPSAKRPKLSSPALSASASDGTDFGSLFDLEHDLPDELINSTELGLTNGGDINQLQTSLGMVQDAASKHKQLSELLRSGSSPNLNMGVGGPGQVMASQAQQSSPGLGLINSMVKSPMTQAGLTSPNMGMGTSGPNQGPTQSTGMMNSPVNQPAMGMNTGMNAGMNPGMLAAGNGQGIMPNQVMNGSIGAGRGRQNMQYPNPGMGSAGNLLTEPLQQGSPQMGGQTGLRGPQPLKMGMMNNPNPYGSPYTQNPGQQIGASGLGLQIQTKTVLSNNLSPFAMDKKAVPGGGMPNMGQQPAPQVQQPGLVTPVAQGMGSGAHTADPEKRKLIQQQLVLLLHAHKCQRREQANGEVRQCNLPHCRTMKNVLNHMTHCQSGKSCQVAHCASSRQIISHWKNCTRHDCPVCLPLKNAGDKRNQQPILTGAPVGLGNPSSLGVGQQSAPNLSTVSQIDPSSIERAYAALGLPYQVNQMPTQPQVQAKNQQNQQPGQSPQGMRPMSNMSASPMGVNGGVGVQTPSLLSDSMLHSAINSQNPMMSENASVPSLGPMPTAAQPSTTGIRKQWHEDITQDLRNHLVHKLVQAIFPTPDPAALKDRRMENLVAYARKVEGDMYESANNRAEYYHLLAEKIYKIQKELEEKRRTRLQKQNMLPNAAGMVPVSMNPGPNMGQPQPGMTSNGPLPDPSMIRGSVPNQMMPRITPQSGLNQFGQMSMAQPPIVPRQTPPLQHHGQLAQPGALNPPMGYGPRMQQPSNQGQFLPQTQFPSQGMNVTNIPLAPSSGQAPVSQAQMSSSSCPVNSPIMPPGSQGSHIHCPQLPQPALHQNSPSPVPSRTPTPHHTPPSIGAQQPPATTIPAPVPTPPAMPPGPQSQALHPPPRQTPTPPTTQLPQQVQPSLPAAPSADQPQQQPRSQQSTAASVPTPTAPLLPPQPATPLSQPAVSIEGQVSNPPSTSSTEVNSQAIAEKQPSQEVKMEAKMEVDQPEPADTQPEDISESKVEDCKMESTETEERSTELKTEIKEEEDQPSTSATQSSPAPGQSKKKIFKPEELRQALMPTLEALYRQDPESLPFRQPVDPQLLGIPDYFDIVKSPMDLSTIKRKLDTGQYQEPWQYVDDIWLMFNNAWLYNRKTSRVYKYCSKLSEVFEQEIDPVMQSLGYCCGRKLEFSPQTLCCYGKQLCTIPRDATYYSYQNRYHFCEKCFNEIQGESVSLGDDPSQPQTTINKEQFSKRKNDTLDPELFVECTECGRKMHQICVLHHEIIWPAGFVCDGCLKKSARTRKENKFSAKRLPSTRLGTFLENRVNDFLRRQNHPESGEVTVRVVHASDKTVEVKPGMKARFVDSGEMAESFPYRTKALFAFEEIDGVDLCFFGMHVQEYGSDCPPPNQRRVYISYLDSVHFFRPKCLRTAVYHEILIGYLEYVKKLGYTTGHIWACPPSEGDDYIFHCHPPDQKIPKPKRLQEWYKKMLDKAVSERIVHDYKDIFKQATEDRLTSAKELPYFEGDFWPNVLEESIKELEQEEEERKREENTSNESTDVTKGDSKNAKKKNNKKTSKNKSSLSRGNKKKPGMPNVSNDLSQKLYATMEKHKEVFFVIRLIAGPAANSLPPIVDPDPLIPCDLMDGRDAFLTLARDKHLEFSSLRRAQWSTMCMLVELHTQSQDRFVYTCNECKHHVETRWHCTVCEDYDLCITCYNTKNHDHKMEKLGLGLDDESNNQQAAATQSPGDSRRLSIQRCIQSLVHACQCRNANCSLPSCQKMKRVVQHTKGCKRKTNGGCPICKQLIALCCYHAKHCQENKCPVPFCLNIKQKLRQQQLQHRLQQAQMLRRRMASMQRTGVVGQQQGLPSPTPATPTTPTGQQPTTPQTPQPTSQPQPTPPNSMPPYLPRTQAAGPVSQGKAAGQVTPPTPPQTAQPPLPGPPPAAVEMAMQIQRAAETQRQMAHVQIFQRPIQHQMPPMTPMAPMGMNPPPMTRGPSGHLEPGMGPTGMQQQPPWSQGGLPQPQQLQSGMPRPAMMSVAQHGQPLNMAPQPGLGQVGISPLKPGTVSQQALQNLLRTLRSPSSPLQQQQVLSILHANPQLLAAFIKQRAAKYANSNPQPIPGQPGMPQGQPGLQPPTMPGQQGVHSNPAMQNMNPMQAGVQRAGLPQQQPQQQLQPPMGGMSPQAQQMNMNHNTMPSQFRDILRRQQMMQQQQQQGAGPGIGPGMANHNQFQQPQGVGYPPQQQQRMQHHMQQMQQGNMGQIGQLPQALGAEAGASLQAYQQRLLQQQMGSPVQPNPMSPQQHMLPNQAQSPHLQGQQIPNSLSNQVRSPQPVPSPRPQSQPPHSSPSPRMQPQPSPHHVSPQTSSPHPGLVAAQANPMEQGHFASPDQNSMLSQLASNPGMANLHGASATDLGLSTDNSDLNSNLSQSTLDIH
Sequence of p300 IBiD (Q09472 2050-2094): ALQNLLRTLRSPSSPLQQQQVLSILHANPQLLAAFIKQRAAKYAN
Sequence of p300 Taz2 (Q09472 1723-1812): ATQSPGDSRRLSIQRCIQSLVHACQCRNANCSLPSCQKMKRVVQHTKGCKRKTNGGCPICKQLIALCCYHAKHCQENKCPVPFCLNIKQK
Sequence of p300 Kix (Q09472 563-648): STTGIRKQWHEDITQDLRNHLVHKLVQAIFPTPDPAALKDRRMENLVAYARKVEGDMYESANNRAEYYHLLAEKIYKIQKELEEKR

Substance: p300 IBiD (from UniProt Q09472)
Kd [1]: 8000 nM

Substance: p300 Taz1 (from UniProt Q09472)
Kd [2]: 1000 nM

Substance: p300 Kix (from UniProt Q09472)
Kd [3]: 3000 nM

p300-dependent acetylation of p53 (western blot, Lys373ac), relative rate (acetyltransferase p300): 2.3 fold
Substance: semi-synthetic full-length p53 with phosphoserine at positions 15 and 20 (from UniProt P04637 1-393) (natural protein)

Substance: p300 Taz2 (from UniProt Q09472)
Kd [4]: 20 nM
